Experimental data published in publication PMC9482650, “Quantitative fragmentomics allow affinity mapping of interactomes” (Nature Communications, 2022).
Each block holds one binder with its values, some of them ahead of it.

What was measured:
Experiment in all cases: holdup assay
Set-up in all cases: key: below the threshold = too weak to quantify, mostly under pKd 3.1 to 4
Conditions in all cases: plain residues with an end cap or a label only (N-terminal biotin on a linker: ado-ado)
[1] = target: IL16_1, Q14005
[2] = target: DLG1_3, Q12959
[3] = target: ARHGEF12, Q9NZN5-2
[4] = target: LDB3, O75112
[5] = target: DLG4_3, P78352
[6] = target: NHERF4_4, Q86UT5
[7] = target: SCRIB_1, Q14160
[8] = target: T1, LRRC7, Q96NW7
T1 sequence (Q96NW7 1440-1537, limits assumed, looked up): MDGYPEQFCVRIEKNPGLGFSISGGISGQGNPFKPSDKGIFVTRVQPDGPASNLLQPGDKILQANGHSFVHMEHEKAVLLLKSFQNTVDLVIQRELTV

[9] = target: DLG1_2, Q12959
[10] = target: Inadl_3, Q8NI35
[11] = target: MAST2, Q6P0Q8
[12] = target: SCRIB_3, Q14160
[13] = target: T2, TIAM2, Q8IVF5
T2 sequence (Q8IVF5 885-986, limits assumed, looked up): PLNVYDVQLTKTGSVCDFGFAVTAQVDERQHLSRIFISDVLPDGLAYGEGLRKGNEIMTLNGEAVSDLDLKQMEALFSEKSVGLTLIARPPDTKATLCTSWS

[14] = target: DLG4_2, P78352
[15] = target: T3, SNTG2, Q9NY99
T3 sequence (Q9NY99 68-166, limits assumed, looked up): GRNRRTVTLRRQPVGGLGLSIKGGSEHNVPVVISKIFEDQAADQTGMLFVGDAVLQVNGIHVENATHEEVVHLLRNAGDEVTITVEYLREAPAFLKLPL

[16] = target: GRASP, Q7Z6J2
[17] = target: IL16_4, Q14005
[18] = target: PICK1, Q9NRD5
[19] = target: T4, NHERF3_3, Q5T2W1
T4 sequence (Q5T2W1 238-333, limits assumed, looked up): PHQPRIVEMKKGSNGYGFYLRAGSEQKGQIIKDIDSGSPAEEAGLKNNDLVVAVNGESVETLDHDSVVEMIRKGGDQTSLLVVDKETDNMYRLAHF

[20] = target: T5, PARD3B_1, Q8TEW8
T5 sequence (Q8TEW8 196-299, limits assumed, looked up): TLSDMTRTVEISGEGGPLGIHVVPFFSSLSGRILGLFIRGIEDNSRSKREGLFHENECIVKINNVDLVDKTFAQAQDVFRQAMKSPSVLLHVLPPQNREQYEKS

[21] = target: T6, NHERF3_1, Q5T2W1
T6 sequence (Q5T2W1 4-100, limits assumed, looked up): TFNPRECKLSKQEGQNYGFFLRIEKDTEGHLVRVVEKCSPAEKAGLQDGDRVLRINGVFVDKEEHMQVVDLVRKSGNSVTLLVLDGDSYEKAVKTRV

[22] = target: PTPN3, P26045
[23] = target: LAP2, Q96RT1
[24] = target: LIMK2, P53671
[25] = target: TJP1_3, Q07157
[26] = target: GRIP2_6, Q9C0E4
[27] = target: Inadl_1, Q8NI35
[28] = target: T7, MPP6, Q9NZW5
T7 sequence (Q9NZW5 125-219, limits assumed, looked up): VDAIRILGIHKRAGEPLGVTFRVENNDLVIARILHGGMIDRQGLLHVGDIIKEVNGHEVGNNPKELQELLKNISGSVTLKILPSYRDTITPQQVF

[29] = target: PARD3_3, Q8TEW0
[30] = target: T8, SNTG1, Q9NSN8
T8 sequence (Q9NSN8 52-150, limits assumed, looked up): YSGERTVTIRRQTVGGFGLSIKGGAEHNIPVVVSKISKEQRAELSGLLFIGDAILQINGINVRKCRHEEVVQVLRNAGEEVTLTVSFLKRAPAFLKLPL

Sequence of PTPN3, P26045 (P26045 505-587): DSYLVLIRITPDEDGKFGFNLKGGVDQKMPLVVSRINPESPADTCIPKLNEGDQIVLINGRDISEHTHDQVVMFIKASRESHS
Sequence of LIMK2, P53671 (P53671 143-248): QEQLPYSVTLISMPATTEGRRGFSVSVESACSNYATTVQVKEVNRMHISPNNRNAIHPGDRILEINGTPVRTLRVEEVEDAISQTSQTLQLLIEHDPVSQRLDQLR
Sequence of MAST2, Q6P0Q8 (Q6P0Q8 1099-1202): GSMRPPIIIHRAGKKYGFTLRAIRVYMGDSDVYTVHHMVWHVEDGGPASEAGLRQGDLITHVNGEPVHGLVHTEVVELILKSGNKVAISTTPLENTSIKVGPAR
Sequence of DLG1_3, Q12959 (Q12959 457-571): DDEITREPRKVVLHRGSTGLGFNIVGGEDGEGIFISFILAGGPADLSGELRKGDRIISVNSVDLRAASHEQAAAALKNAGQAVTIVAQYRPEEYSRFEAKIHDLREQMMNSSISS
Sequence of PARD3_3, Q8TEW0 (Q8TEW0 582-685): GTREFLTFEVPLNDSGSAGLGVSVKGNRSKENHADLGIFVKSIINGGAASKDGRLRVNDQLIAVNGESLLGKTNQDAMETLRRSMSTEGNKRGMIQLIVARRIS
Sequence of DLG1_2, Q12959 (Q12959 314-412): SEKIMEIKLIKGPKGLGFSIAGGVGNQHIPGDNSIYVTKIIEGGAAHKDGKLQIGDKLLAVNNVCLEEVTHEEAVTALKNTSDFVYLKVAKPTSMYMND
Sequence of SCRIB_1, Q14160 (Q14160 718-814): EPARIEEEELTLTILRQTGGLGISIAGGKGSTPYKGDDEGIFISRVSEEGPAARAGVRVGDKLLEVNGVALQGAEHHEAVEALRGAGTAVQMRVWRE
Sequence of NHERF4_4, Q86UT5 (Q86UT5 464-550): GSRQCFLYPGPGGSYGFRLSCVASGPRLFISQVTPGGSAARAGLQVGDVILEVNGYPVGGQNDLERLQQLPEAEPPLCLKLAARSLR
Sequence of LAP2, Q96RT1 (Q96RT1 other isoform, or with tags, fused parts or gaps): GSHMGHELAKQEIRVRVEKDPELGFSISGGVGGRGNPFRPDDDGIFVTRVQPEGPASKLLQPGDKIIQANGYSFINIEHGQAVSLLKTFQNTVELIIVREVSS
Sequence of GRIP2_6, Q9C0E4 (Q9C0E4 648-740): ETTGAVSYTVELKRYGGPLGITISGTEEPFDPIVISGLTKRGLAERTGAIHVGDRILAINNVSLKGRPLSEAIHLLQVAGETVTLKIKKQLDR
Sequence of IL16_4, Q14005 (Q14005 1229-1329): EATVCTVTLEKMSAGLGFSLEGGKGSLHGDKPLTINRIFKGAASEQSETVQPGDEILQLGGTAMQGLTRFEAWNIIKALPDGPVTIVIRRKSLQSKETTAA
Sequence of ARHGEF12, Q9NZN5-2 (Q9NZN5 other isoform, or with tags, fused parts or gaps): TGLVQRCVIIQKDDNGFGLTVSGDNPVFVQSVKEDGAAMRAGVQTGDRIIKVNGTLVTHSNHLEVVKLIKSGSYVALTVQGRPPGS
Sequence of Inadl_3, Q8NI35 (Q8NI35 359-469): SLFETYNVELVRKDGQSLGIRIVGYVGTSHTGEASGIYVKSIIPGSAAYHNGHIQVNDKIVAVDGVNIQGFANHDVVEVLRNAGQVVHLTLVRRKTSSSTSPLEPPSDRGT
Sequence of LDB3, O75112 (O75112 1-94): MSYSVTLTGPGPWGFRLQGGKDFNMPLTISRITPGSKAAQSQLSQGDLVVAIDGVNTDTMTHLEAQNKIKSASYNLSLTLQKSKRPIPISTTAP
Sequence of PICK1, Q9NRD5 (Q9NRD5 17-115): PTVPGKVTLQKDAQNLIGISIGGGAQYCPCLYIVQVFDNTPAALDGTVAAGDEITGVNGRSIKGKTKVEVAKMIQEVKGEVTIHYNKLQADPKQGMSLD
Sequence of TJP1_3, Q07157 (Q07157 416-512): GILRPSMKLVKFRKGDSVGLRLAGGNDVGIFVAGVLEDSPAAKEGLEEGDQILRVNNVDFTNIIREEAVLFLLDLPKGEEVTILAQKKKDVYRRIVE
Sequence of DLG4_3, P78352 (P78352 306-403): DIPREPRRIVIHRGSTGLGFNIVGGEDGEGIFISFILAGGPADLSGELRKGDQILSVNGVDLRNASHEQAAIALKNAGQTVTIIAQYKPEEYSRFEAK
Sequence of Inadl_1, Q8NI35 (Q8NI35 113-229): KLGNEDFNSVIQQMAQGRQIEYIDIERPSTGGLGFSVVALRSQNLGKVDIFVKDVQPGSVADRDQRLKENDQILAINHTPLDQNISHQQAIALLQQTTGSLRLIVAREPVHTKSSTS
Sequence of IL16_1, Q14005 (Q14005 210-306): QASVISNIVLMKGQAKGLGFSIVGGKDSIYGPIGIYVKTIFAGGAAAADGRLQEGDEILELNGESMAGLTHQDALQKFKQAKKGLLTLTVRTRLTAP
Sequence of DLG4_2, P78352 (P78352 155-259): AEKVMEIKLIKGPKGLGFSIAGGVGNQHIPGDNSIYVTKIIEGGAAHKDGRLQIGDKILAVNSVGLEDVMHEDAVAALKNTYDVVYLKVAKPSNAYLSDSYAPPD
Sequence of GRASP, Q7Z6J2 (Q7Z6J2 96-193): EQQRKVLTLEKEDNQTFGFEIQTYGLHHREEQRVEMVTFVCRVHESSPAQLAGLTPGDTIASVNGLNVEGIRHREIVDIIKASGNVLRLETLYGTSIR
Sequence of SCRIB_3, Q14160 (Q14160 999-1103): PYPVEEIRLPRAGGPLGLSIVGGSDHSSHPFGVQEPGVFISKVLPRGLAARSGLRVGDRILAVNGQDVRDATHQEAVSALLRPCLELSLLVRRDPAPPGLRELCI

pKd [1]: 4.55
pKd [2]: 4.09
pKd [3]: 4.31
pKd [4]: below the threshold
pKd [5]: 3.78
pKd [6]: below the threshold
pKd [7]: 4.69
pKd [8]: 4.05
pKd [9]: 5.51
pKd [10]: 3.68
pKd [11]: 5.07
pKd [12]: 4.55
pKd [13]: 4.13
pKd [14]: 5.33
pKd [15]: 4.24
pKd [16]: below the threshold
pKd [17]: below the threshold
pKd [18]: below the threshold
pKd [19]: below the threshold
pKd [20]: below the threshold
pKd [21]: 3.82
pKd [22]: 4.98
pKd [23]: 4.46
pKd [24]: below the threshold
pKd [25]: below the threshold
pKd [26]: below the threshold
pKd [27]: below the threshold
pKd [28]: below the threshold
pKd [29]: below the threshold
pKd [30]: 5.11
B1: GRIN2C, Q14957 (peptide)
chain: RRISSLESEV

pKd [1]: below the threshold
pKd [2]: 3.69
pKd [3]: below the threshold
pKd [4]: below the threshold
pKd [5]: below the threshold
pKd [6]: below the threshold
pKd [7]: below the threshold
pKd [8]: below the threshold
pKd [9]: 3.66
pKd [10]: below the threshold
pKd [11]: below the threshold
pKd [12]: below the threshold
pKd [13]: 3.97
pKd [14]: below the threshold
pKd [15]: below the threshold
pKd [16]: below the threshold
pKd [17]: below the threshold
pKd [18]: below the threshold
pKd [19]: below the threshold
pKd [20]: below the threshold
pKd [21]: below the threshold
pKd [22]: below the threshold
pKd [23]: below the threshold
pKd [24]: below the threshold
pKd [25]: below the threshold
pKd [26]: below the threshold
pKd [27]: below the threshold
pKd [28]: below the threshold
pKd [29]: below the threshold
pKd [30]: below the threshold
B2: GRIK2, Q13002 (peptide)
chain: RRLPGKETMA
